Experimental data taken from patent US20060121462A1, “Receptor and screening methods” (priority 2003, published 2006).

What was measured:
[1] = target: T1, CD88 (Homo sapiens, UniProt P21730); experiment: Degranulation of CD88-transfected RBL cells; format: cell-based; conditions: RBL cells transfected with CD88; data not shown
T1 construct: expressed in transfected cells
T1 sequence (P21730 1-350): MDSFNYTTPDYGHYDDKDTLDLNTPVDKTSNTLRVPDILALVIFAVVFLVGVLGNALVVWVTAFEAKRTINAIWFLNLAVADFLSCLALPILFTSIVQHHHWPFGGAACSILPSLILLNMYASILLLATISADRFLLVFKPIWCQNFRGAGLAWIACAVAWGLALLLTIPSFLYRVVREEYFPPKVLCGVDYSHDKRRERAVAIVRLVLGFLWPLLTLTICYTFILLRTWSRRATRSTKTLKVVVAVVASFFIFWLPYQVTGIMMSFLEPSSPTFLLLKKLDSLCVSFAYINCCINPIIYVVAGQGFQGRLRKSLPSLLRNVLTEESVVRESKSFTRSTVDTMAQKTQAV

[2] = target: T2, C3aR (Homo sapiens, UniProt Q16581); experiment: Radiolabelled ligand competition receptor binding, C3aR-transfected RBL cells; conditions: C3aR expressed in RBL cells; competition binding
T2 construct: expressed in transfected cells
T2 sequence (Q16581 1-482): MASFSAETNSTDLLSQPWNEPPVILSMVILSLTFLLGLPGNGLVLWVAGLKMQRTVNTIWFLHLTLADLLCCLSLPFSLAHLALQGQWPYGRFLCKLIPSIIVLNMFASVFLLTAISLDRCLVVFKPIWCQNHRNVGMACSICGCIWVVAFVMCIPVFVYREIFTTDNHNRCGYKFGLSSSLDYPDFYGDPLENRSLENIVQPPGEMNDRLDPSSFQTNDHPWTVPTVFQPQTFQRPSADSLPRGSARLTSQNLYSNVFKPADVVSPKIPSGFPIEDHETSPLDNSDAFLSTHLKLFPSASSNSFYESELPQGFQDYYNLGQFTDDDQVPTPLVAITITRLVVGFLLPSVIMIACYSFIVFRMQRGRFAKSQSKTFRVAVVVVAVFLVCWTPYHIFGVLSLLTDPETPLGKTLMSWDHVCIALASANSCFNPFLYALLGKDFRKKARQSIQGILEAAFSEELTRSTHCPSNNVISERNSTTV
Source text: (§1) C5L2, C3aR and CD88-transfected RBL cells were produced as described (17). G16 was cloned from human monocytes mRNA and authenticated by sequencing. Human G16 and either C5L2 or CD88 were ligated into the bicistronic expression vector pIRES (Qiagen). Stable transfection of RBL-2H3 cells with pIRES constructs was achieved by electroporation (18). Cells underwent three rounds of fluorescence-activated cell sorting using anti-CD88 antibody (clone S5/1; Serotec) or anti-hemagglutinin peptide antibody (Roćhe Molecular Biochemicals, clone 12CA5), selecting the top 5% of receptor-positive cells in each round.
(§2) Competition binding assays were performed using 50 pM ^125I-C5a or ^125I-C3a (NEN) on adherent C5aR-transfected or C5L2-transfected RBL cells in 96-well microtiter plates (55 000/well) at 4° C. as described previously (22). Competition curves were generated by pre-incubating adherent cells with increasing concentrations of unlabelled complement fragments. The IC50, standard error values and linear regression analyses were obtained by using GraphPad Prism 2.0.

[3] = target: T2, C3aR; experiment: Degranulation of C3aR-transfected RBL cells; format: cell-based; conditions: RBL cells transfected with C3aR; data not shown
Procedure: Cellular activation was measured as the release of -hexosaminidase from intracellular granules (20). In the enhancement of degranulation assay, cells were treated with 1 μg/ml IgE^DNP (21) overnight, then with chemoattractants or peptides for 10 min prior to stimulation with 100 ng/ml DNP-HSA (Sigma) for 15 minutes. EC50 and standard error values were obtained by iterative curve fitting using GraphPad Prism 2.0.

[4] = target: T3, C5L2 (Homo sapiens, UniProt Q9P296); experiment: Competition binding with 125I-C5a, C5L2-transfected RBL cells
T3 construct: expressed in transfected cells
T3 sequence (Q9P296 whole entry): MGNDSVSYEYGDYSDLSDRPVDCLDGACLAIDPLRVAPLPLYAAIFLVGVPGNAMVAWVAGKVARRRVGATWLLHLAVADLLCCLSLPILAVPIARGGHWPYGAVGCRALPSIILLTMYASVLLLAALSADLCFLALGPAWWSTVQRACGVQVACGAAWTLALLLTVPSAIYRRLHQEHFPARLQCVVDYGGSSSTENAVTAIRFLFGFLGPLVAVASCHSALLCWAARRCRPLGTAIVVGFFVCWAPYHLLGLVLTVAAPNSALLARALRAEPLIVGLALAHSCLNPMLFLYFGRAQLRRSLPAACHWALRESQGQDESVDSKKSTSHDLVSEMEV
Procedure: (§3) FIG. 1 illustrates C3a des-Arg^77 and C4a des-Arg^77 bind to RBL cells expressing C5L2. RBL cells transfected with C5L2 were incubated with the stated concentrations of complement fragments for 10 min prior to the addition of 50 pM ^125I-C3a (A) or 50 pM ^125I-C5a (B). Results are the means of n (n shown in Table 1) separate experiments performed in duplicate±S.E.;
as §1
as §2, with “The IC50, standard error values and linear regression analyses were obtained by using GraphPad Prism 2.0.” left out

[5] = target: T3, C5L2; experiment: Competition binding with 125I-C3a, C5L2-transfected RBL cells; conditions: FIG. 1A
Procedure: as §3, §1
as §2, with “The IC50, standard error values and linear regression analyses were obtained by using GraphPad Prism 2.0.” left out

[6] = target: T1, CD88; experiment: Radiolabelled ligand competition receptor binding, CD88-transfected RBL cells
Source text: as §1, §2

[7] = target: T3, C5L2; experiment: Degranulation (β-hexosaminidase) and enhancement of IgE-receptor-mediated degranulation, C5L2-transfected RBL cells; format: cell-based; conditions: enhancement of IgE-mediated degranulation, FIG. 3A
[8] = target: T4, C5L2+Gα16 (Homo sapiens, UniProt Q9P296); format: cell-based; conditions: C5L2+Gα16 cells after 10 ng/ml PT, FIG. 4D
T4 construct: inferred from the sorting antibody; expressed in transfected cells
T4 sequence (Q9P296 whole entry): as above

B1: C4a des-Arg^77 (protein)
chain: NVNFQKAINEKLGQYASPTAKRCCQDGVTRLPMMRSCEQRAARVQQPDCREPFLSCCQFAESLRKKSRDKGQAGLQ
notes: desarginated metabolite of complement fragment C4a
With B1 the stimulation of degranulation [1] was “neither C3a des-AXg^77 nor C4a des-Arg^77 can stimulate degranulation”, the IC50 [2] was 10 µM and the stimulation of degranulation [3] was “neither C3a des-AXg^77 nor C4a des-Arg^77 can stimulate degranulation”. The IC50 ([4]; C5L2 (^125I-C5a) expressed in RBL cells, 50 pM radioligand) was 17 µM, the “competition with ^125I-C5a binding to C5L2” value ([4]; FIG. 1B) was “cannot compete effectively” and the “competition with ^125I-C3a for C5L2 binding” value [5] was “can compete strongly”. The “competition with ^125I-C5a binding to CD88” value [6] was “cannot compete effectively”.

B2: C5a des-Arg^74 (protein)
chain: TLQKKIEEIAAKYKHSVVKKCCYDGACVNNDETCEQRAARISLGPRCIKAFTECCVVASQLRANISHKDMQLG
modifications: left off: small tags and cut ends
notes: desarginated metabolite of complement fragment C5a
In the case of B2, the agonist character [7] is reported as “only a partial agonist”.

B3: C4a: complement fragment of C4 (protein)
chain: NVNFQKAINEKLGQYASPTAKRCCQDGVTRLPMMRSCEQRAARVQQPDCREPFLSCCQFAESLRKKSRDKGQAGLQR
B3 was tested, and the “enhancement of degranulation response to IgE receptor cross-linking” value [8] was “inactive”.
